From patent publication US20060014212A1
Each block holds one binder with its values, some of them ahead of it. Where no end group is shown, it is not given here.

Legend:
[1] = biological target: anti-A011 antibody (MEK1 PET); experiment: peptide competition assay in 6% BSA
[2] = biological target: anti-A016 antibody (Thyroglobulin PET); experiment: peptide competition assay in 6% BSA
[3] = biological target: anti-A037 antibody (C9 PET); experiment: peptide competition assay in 6% BSA
[4] = biological target: anti-A007 antibody (ERK2 PET); experiment: peptide competition assay in 6% BSA
[5] = biological target: anti-A020 antibody (Troponin I PET); experiment: peptide competition assay in 6% BSA
[6] = biological target: anti-A039 antibody (C9 PET); experiment: peptide competition assay in 6% BSA
[7] = biological target: anti-A034 antibody (C4 PET); experiment: peptide competition assay in 6% BSA
[8] = biological target: anti-A004 antibody (ERK1 PET); experiment: peptide competition assay in 6% BSA
[9] = biological target: anti-A046 antibody (Fibronectin PET); experiment: peptide competition assay in 6% BSA
[10] = biological target: anti-A028 antibody (IL-1beta PET); experiment: peptide competition assay in 6% BSA
[11] = biological target: anti-A013 antibody (Thyroglobulin PET); experiment: peptide competition assay in 6% BSA
[12] = biological target: anti-A008 antibody (ERK2 PET); experiment: peptide competition assay in 6% BSA
[13] = biological target: anti-A044 antibody (Fibronectin PET); experiment: peptide competition assay in 6% BSA
[14] = biological target: anti-A023 antibody (PSA PET); experiment: peptide competition assay in 6% BSA
[15] = biological target: anti-A005 antibody (ERK1 PET); experiment: peptide competition assay in 6% BSA
[16] = biological target: anti-A024 antibody (IL-1beta PET); experiment: peptide competition assay in 6% BSA
[17] = biological target: anti-A010 antibody (MEK1 PET); experiment: peptide competition assay in 6% BSA
[18] = biological target: anti-A049 antibody (FactorXII PET); experiment: peptide competition assay in 6% BSA
[19] = biological target: anti-A027 antibody (IL-1beta PET); experiment: peptide competition assay in 6% BSA
[20] = biological target: anti-A001 antibody (TGFbeta1 PET); experiment: peptide competition assay in 6% BSA
[21] = biological target: anti-A047 antibody (Fibronectin PET); experiment: peptide competition assay in 6% BSA
[22] = biological target: anti-A009 antibody (pERK2 PET); experiment: peptide competition assay in 6% BSA
[23] = biological target: anti-A006 antibody (pERK1 PET); experiment: peptide competition assay in 6% BSA
[24] = biological target: anti-A043 antibody (CRP PET); experiment: peptide competition assay in 6% BSA
[25] = biological target: anti-A045 antibody (Fibronectin PET); experiment: peptide competition assay in 6% BSA
[26] = biological target: anti-A021 antibody (PSA PET); experiment: peptide competition assay in 6% BSA
[27] = biological target: anti-A015 antibody (Thyroglobulin PET); experiment: peptide competition assay in 6% BSA
[28] = biological target: anti-A026 antibody (IL-1beta PET); experiment: peptide competition assay in 6% BSA
[29] = biological target: anti-A017 antibody (Troponin I PET); experiment: peptide competition assay in 6% BSA
[30] = biological target: anti-A031 antibody (C3 PET); experiment: peptide competition assay in 6% BSA
[31] = biological target: anti-A025 antibody (IL-1beta PET); experiment: peptide competition assay in 6% BSA
[32] = biological target: anti-A002 antibody (TGFbeta1 PET); experiment: peptide competition assay in 6% BSA
[33] = biological target: anti-A035 antibody (C4 PET); experiment: peptide competition assay in 6% BSA
[34] = biological target: anti-A012 antibody (Thyroglobulin PET); experiment: peptide competition assay in 6% BSA
[35] = biological target: anti-A014 antibody (Thyroglobulin PET); experiment: peptide competition assay in 6% BSA
[36] = biological target: anti-A003 antibody (TGFbeta1 PET); experiment: peptide competition assay in 6% BSA
antibody C1 = experiment: peptide competition ELISA: soluble peptide against immobilized target peptide for antibody C1
[37] = biological target: anti-A022 antibody (PSA PET); experiment: peptide competition assay in 6% BSA

Binder: CGTSSAETNLEALQK-NH2 [A011 peptide (MEK1), …-NH2]
- IC50 [1]: 23 nM

Binder: CDEAGQELEGMR-NH2 [A016 peptide (Thyroglobulin), …-NH2]
- IC50 [2]: 4 nM

Binder: Ac-IEVEQALAHPYLEQC [A007 peptide (ERK2), Ac-…]
- IC50 [4]: 4 nM

Binder: Ac-NIDALSGMEGRC [A020 peptide (Troponin I), Ac-…]
- IC50 [5]: 4 nM

Binder: Ac-ITVEEALAHPYLEQC [A004 peptide (ERK1), Ac-…]
- IC50 [8]: 25 nM

Binder: Ac-ELAETGLELLC [A013 peptide (Thyroglobulin), Ac-…]
- IC50 [11]: 8 nM

Binder: CDPSDEPIAEAPFK-NH2 [A008 peptide (ERK2), …-NH2]
- IC50 [12]: 6 nM

Binder: CGSIEPEEFLTPK-NH2 [A023 peptide (PSA), …-NH2]
- IC50 [14]: 8 nM

Binder: CVAEEPFTFDMELDD-NH2 [A005 peptide (ERK1), …-NH2]
- IC50 [15]: 6 nM

Binder: CNEDDLFFEADGPK-NH2 [A024 peptide (IL-1beta), …-NH2]
- IC50 [16]: 0.5 nM

Binder: Ac-PTPIQLNPAPDGC [A010 peptide (MEK1), Ac-…]
- IC50 [17]: 36 nM

Binder: Ac-ALYNQHNPGASAAPC [A001 peptide (TGFbeta1), Ac-…]
- IC50 [20]: 0.8 nM

Binder: Ac-VADPDHDHTGC [A009 peptide (ERK2), Ac-…]
- IC50 [22]: 31 nM

Binder: Ac-IADPEHDHTGC [A006 peptide (ERK1), Ac-…]
- IC50 [23]: 6 nM

Binder: Ac-LSEPAELTDAVKC [A021 peptide (PSA), Ac-…]
- IC50 [26]: 8 nM

Binder: CDFSTPLAHFDLR-NH2 [A015 peptide (Thyroglobulin), …-NH2]
- IC50 [27]: 4 nM

Binder: Ac-AYATEPHAKC [A017 peptide (Troponin I), Ac-…]
- IC50 [29]: 10 nM

Binder: Ac-PQALEPLPIVYYVGRC [A002 peptide (TGFbeta1), Ac-…]
- IC50 [32]: 3 nM

Binder: Ac-GGQSAESEEEELC [A012 peptide (Thyroglobulin), Ac-…]
- IC50 [34]: 10 nM

Binder: CEIYDTIFAGLD-NH2 [A014 peptide (Thyroglobulin), …-NH2]
- IC50 [35]: 5 nM

Binder: CYIWSLDTQYSK-NH2 [A003 peptide (TGFbeta1), …-NH2]
- IC50 [36]: 8 nM

Binder: CDLPTQEPALG-NH2 [A022 peptide (PSA), …-NH2]
- IC50 [37]: 8 nM

Now from value to binder:

- IC50 [3]: 0.5 nM
Binder: CTEHYEEQIEAFK-NH2 [A037 peptide (C9), …-NH2]

- IC50 [6]: 0.4 nM
Binder: Ac-PWNVASLIYETKC [A039 peptide (C9), Ac-…]

- IC50 [7]: 4 nM
Binder: CQTDQPIYNPGQR-NH2 [A034 peptide (C4), …-NH2]

- IC50 [9]: 20 nM
Binder: CTTQNYDADQK-NH2 [A046 peptide (Fibronectin), …-NH2]

- IC50 [10]: 0.5 nM
Binder: CENMPVFLGGTK-NH2 [A028 peptide (IL-1beta), …-NH2]

- IC50 [13]: 8 nM
Binder: CHEGGQSYK-NH2 [A044 peptide (Fibronectin), …-NH2]

- IC50 [18]: 15 nM
Binder: CVAGWGHQFEGAEEY-NH2 [A049 peptide (FactorXII), …-NH2]

- IC50 [19]: 5 nM
Binder: CLEFESAQFPNWY-NH2 [A027 peptide (IL-1beta), …-NH2]

- IC50 [21]: 10 nM
Binder: Ac-VDVIPVNLPGEHGQRC [A047 peptide (Fibronectin), Ac-…]

- IC50 [24]: 4 nM
Binder: CYEVQGEVFTK-NH2 [A043 peptide (CRP), …-NH2]

- IC50 [25]: 1 nM
Binder: CTFYQIGDSWEK-NH2 [A045 peptide (Fibronectin), …-NH2]

- IC50 [28]: 8 nM
Binder: Ac-PTLQLESVDPKC [A026 peptide (IL-1beta), Ac-…]

- IC50 [30]: 5 nM
Binder: CHYLDETEQWEK-NH2 [A031 peptide (C3), …-NH2]

- IC50 [31]: 5 nM
Binder: Ac-SLVMSGPYELKC [A025 peptide (IL-1beta), Ac-…]

- IC50 [33]: 4 nM
Binder: CEANEDYEDYEYDE-NH2 [A035 peptide (C4), …-NH2]

- IC50 (antibody C1): 1000 nM
Binder: YEVQGEVF [CRP-derived 8-mer PET YEVQGEVF]
